{
  "source": "patent US20160347827A1",
  "key": {"[1]": {"molecular_target": "soluble F glycoprotein (sF)", "test": "SPR, Biacore 3000, mAb captured by anti-Fc on CM5, sF in solution"}, "[2]": {"molecular_target": "full-length wild-type NiV F glycoprotein (Nipah virus) (UniProt Q9IH63)", "sequence (Q9IH63 27-546)": "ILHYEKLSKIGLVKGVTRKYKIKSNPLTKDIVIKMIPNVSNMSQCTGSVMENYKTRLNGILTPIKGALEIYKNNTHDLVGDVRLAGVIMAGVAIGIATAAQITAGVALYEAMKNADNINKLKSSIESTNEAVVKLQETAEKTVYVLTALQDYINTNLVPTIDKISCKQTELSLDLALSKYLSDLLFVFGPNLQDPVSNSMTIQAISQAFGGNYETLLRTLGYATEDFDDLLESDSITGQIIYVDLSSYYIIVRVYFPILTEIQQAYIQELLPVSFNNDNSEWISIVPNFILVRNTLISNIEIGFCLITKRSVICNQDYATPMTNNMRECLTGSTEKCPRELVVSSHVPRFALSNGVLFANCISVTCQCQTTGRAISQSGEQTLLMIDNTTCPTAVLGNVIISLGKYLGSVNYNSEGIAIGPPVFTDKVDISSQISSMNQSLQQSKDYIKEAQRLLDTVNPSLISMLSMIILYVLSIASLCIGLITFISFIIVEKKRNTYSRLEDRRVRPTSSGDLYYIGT", "test": "cell-based or functional assay"}, "[3]": {"molecular_target": "full-length wild-type HeV F glycoprotein (Hendra virus) (UniProt O89342)", "sequence (O89342 27-546)": "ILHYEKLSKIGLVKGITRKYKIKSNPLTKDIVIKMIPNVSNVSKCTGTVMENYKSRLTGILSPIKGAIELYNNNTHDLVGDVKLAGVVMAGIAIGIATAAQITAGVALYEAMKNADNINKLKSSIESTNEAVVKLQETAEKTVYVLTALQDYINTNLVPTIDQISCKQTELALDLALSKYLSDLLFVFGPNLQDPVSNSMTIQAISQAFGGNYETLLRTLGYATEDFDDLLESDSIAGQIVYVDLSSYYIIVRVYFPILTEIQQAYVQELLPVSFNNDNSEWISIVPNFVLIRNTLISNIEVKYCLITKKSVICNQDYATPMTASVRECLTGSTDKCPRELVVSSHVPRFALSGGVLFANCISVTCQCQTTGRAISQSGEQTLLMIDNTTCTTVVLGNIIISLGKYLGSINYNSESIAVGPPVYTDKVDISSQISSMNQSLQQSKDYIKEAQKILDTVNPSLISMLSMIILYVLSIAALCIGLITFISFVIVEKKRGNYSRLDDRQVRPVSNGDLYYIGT", "test": "cell-based or functional assay"}},
  "data": [
    {"binder": "murine 5B3 monoclonal antibody (antibody, V domains shown) VH: EVQLVESGGGLVKPGGSLKLSCAASGFTFSSYDMSWVRQTPEKRLEWVAMISSGGSYSYYPDSVKGRFTISRDNAKNTLYLQMSSLRSEDTAMYYCARQGDYAWFAYWGQGTLVTVS VL: DIQMTQSPASQSASLGESVTITCLASQTIGTWLAWYQQKPGKSPQLLIYAATSLADGVPSRFSGSGSGTKFSFKISSLQAEDFVSYYCQQFYSTPFTFGGGTKLEIKR", "values": [
      {"measurement": "Ka", "setting": "[1]", "value": "3.7e+08", "unit": "M⁻¹"},
      {"measurement": "Kd", "setting": "[1]", "value": 2.7, "unit": "nM"}
    ]},
    {"binder": "humanized 5B3.1 IgG1 (antibody, V domains shown) VH: EVQLVESGGGLVKPGGSLRLSCAASGFTFSSYSMSWVRQAPGKGLEWVAMISSGGSYSYYADSVKGRFTISRDNSKNTLYLQMNSLRAEDTAVYYCARQGDYAWFDIWGQGTLVTVS VL: DIQMTQSPSSLSASVGDRVTITCLASQTIGTWLAWYQQKPGKAPKLLIYAATSLADGVPSRFSGSGSGTDFTLTISSLQPEDFATYYCQQFYSTPFTFGGGTKLEIKR", "values": [
      {"measurement": "virus neutralization titer, NiV 100 TCID50 (cpe fully inhibited, Vero cells)", "setting": "[2]", "value": "> 100", "unit": "µg/mL"},
      {"measurement": "virus neutralization titer, NiV 200 TCID50 (cpe fully inhibited, Vero cells)", "setting": "[2]", "value": "> 100", "unit": "µg/mL"},
      {"measurement": "virus neutralization titer, HeV 100 TCID50 (cpe fully inhibited, Vero cells)", "setting": "[3]", "value": "> 100", "unit": "µg/mL"},
      {"measurement": "virus neutralization titer, HeV 200 TCID50 (cpe fully inhibited, Vero cells)", "setting": "[3]", "value": "> 100", "unit": "µg/mL"},
      {"measurement": "Ka", "setting": "[1]", "value": "1.6e+07", "unit": "M⁻¹"},
      {"measurement": "Kd", "setting": "[1]", "value": 62, "unit": "nM"},
      {"measurement": "koff", "setting": "[1]", "value": 0.0017, "unit": "s⁻¹"},
      {"measurement": "kon", "setting": "[1]", "value": 27000, "unit": "M⁻¹ s⁻¹"}
    ]},
    {"binder": "humanized 5B3 IgG1 (antibody, V domains shown) VH: EVQLVESGGGLVKPGGSLRLSCAASGFTFSSYDMSWVRQAPGKGLEWVAMISSGGSYSYYPDSVKGRFTISRDNSKNTLYLQMNSLRAEDTAVYYCARQGDYAWFAYWGQGTLVTVS VL: DIQMTQSPSSLSASVGDRVTITCLASQTIGTWLAWYQQKPGKAPKLLIYAATSLADGVPSRFSGSGSGTDFTLTISSLQPEDFATYYCQQFYSTPFTFGGGTKLEIKR", "values": [
      {"measurement": "virus neutralization titer, NiV 100 TCID50 (cpe fully inhibited, Vero cells)", "setting": "[2]", "value": 1.56, "unit": "µg/mL"},
      {"measurement": "virus neutralization titer, NiV 200 TCID50 (cpe fully inhibited, Vero cells)", "setting": "[2]", "value": 3.12, "unit": "µg/mL"},
      {"measurement": "virus neutralization titer, HeV 100 TCID50 (cpe fully inhibited, Vero cells)", "setting": "[3]", "value": 0.78, "unit": "µg/mL"},
      {"measurement": "virus neutralization titer, HeV 200 TCID50 (cpe fully inhibited, Vero cells)", "setting": "[3]", "value": 12.5, "unit": "µg/mL"},
      {"measurement": "Ka", "setting": "[1]", "value": "7.5e+07", "unit": "M⁻¹"},
      {"measurement": "Kd", "setting": "[1]", "value": 13, "unit": "nM"},
      {"measurement": "koff", "setting": "[1]", "value": 0.00033, "unit": "s⁻¹"},
      {"measurement": "kon", "setting": "[1]", "value": 25000, "unit": "M⁻¹ s⁻¹"}
    ]}
  ]
}
